Assay results as given in patent US20240309093A1 (MINGHUI PHARMACEUTICAL HANGZHOU, published 2024).
Numbering of substitutions follows the chain as printed.

B1: MHPD1-A-45 H Fc (Fc fusion)
chain: QVQLVESGGGLVQPGGSLRLSCATSHLRRSIYAMGWFRQAPGKGLEFVAGIGWAYATTYYADSVKGRFTISRDNTKNTLYLQMNSLRAEDTAVYYCAADLDHSGFDYWGQGTLVTVSS
notes: not shown: Fc
B2: MHPD1-A-30 H Fc (Fc fusion)
chain: B1 chain with H26G, L27V, T58Q, L100I
notes: not shown: Fc
B3: MHPD1-A-32 H Fc (Fc fusion)
chain: B1 chain with H26K, L27N
notes: not shown: Fc
B4: MHPD1-A-21 H Fc (Fc fusion, not shown: a dimerising Fc or GST; small tags and cut ends)
VHH: B1 chain with H26G, L27S, T58S
B5: MHPD1-A-15 H Fc (Fc fusion)
chain: B1 chain with H26G, A56S
notes: not shown: Fc
B6: MHPD1-A-23 H Fc (Fc fusion)
VHH: B1 chain with H26G, L27T
notes: not shown: Fc region
B7: MHPD1-A-49 H Fc (Fc fusion, not shown: a dimerising Fc or GST; small tags and cut ends)
VHH: B1 chain with H26G, L27S, H102R, S103V
B8: MHPD1-A-39 H Fc (Fc fusion)
chain: B1 chain with H26G, L27S, T58E
notes: not shown: Fc
B9: MHPD1-A-20 H Fc (Fc fusion, not shown: a dimerising Fc or GST; small tags and cut ends)
VHH: B1 chain with H26G, L27S, R29K
B10: MHPD1-A-37 H Fc (Fc fusion, not shown: a dimerising Fc or GST; small tags and cut ends)
VHH: B1 chain with H26G, L27A, H102R, S103T
B11: MHPD1-A-2 H Fc (Fc fusion, not shown: a dimerising Fc or GST; small tags and cut ends)
VHH: B1 chain with T24A, H26G, L27R, R28F, R29P, A54R
B12: MHPD1-A-6 H Fc (Fc fusion, not shown: a dimerising Fc or GST; small tags and cut ends)
VHH: B1 chain with T24A, H26G, L27R, R29P, A54N
B13: MHPD1-A-1 H Fc (Fc fusion, not shown: a dimerising Fc or GST; small tags and cut ends)
VHH: B1 chain with T24A, H26G, L27S, R28D, R29P, Y55W, H102R
B14: MHPD1-A-11 H Fc (Fc fusion, not shown: a dimerising Fc or GST; small tags and cut ends)
VHH: B1 chain with T24A, H26G, L27S, R28Q, R29L, A54R, Y55F
B15: MHPD1-A-10 H Fc (Fc fusion, not shown: a dimerising Fc or GST; small tags and cut ends)
VHH: B1 chain with T24A, H26G, L27S, R28D, R29D, S30R, A54R
B16: MHPD1-A-9 H Fc (Fc fusion, not shown: a dimerising Fc or GST; small tags and cut ends)
VHH: B1 chain with T24A, H26G, L27S, R28G, R29H, A54S
B17: MHPD1-A-5 H Fc (Fc fusion, not shown: a dimerising Fc or GST; small tags and cut ends)
VHH: B1 chain with T24A, H26G, L27S, R28S, R29L
B18: MHPD1-A-14 H Fc (Fc fusion, not shown: a dimerising Fc or GST; small tags and cut ends)
VHH: B1 chain with T24A, H26S, L27H, R29P, A54R
B19: MHPD1-A-13 H Fc (Fc fusion)
chain: B1 chain with T24A, L27A, R28D, R29P, A54N
notes: not shown: Fc
B20: MHPD1-A-12 H Fc (Fc fusion, not shown: a dimerising Fc or GST; small tags and cut ends)
VHH: B1 chain with T24A, H26G, L27S, R28D, R29Y, S30A, Y55F
B21: MHPD1-A-8 H Fc (Fc fusion)
chain: B1 chain with T24A, H26G, L27G, R29P, Y55F
notes: not shown: Fc
B22: MHPD1-A-16 H Fc (Fc fusion, not shown: a dimerising Fc or GST; small tags and cut ends)
VHH: B1 chain with H26G, L27S, R29V
B23: MHPD1-A-38 H Fc (Fc fusion, not shown: a dimerising Fc or GST; small tags and cut ends)
VHH: B1 chain with H26G, L27N, H102R, S103R
B24: MHPD1-A-27 H Fc (Fc fusion)
VHH: B1 chain with H26K, L27S
notes: not shown: Fc region
B25: MHPD1-A-33 H Fc (Fc fusion)
VHH: B1 chain with H26G, L27S, R29S, S30Q
notes: not shown: Fc region
B26: MHPD1-A-17 H Fc (Fc fusion, not shown: a dimerising Fc or GST; small tags and cut ends)
VHH: B1 chain with H26G, L27S, R28I, R29S
B27: MHPD1-A-46 H Fc (Fc fusion, not shown: a dimerising Fc or GST; small tags and cut ends)
VHH: B1 chain with H26G, L27S, R28K, R29G, H102R
B28: MHPD1-A-24 H Fc (Fc fusion)
chain: B1 chain with H26G, L27S, R29H, H102R, S103A
notes: not shown: Fc
B29: MHPD1-A-31 H Fc (Fc fusion)
VHH: B1 chain with H26G, L27S, I51L, S103H
notes: not shown: Fc region
B30: MHPD1-A-42 H Fc (Fc fusion)
chain: B1 chain with H26G, L27S, R29Q, S30T, T58Q
notes: not shown: Fc
B31: MHPD1-A-22 H Fc (Fc fusion)
VHH: B1 chain with H26G, L27S, H102R, S103G
notes: not shown: Fc region
B32: MHPD1-A-29 H Fc (Fc fusion)
VHH: B1 chain with H26G, L27S, R28G, R29G
notes: not shown: Fc region
B33: MHPD1-A-43 H Fc (Fc fusion, not shown: a dimerising Fc or GST; small tags and cut ends)
VHH: B1 chain with H26G, L27S, H102R, S103A
B34: MHPD1-A-44 H Fc (Fc fusion)
chain: B1 chain with H26G, L27S, R29T, S30R, T58E
notes: not shown: Fc
B35: MHPD1-A-25 H Fc (Fc fusion)
chain: B1 chain with H26G, L27V, H102R, S103H
notes: not shown: Fc
B36: MHPD1-A-19 H Fc (Fc fusion, not shown: a dimerising Fc or GST; small tags and cut ends)
VHH: B1 chain with H26G, L27S, R28E, R29V, H102R, S103R
B37: MHPD1-A-18 H Fc (Fc fusion, not shown: a dimerising Fc or GST; small tags and cut ends)
VHH: B1 chain with H26G, L27S, R29S, I51L, S103L
B38: MHPD1-A-28 H Fc (Fc fusion)
VHH: B1 chain with H26K, T58Q
notes: not shown: Fc region
B39: MHPD1-A-35 H Fc (Fc fusion)
VHH: B1 chain with H26A, L27P, A56G
notes: not shown: Fc region

target: T1, recombinant human PD-1-Fc-Biotin (human, UniProt Q15116 25-167, biotin (site not stated)); assay: competitive ELISA; PD-L1-mFc coated, 0.5 µg/mL PD-1-Fc-Biotin, streptavidin-HRP
T1 construct: also called antigen protein human PD-1; not shown: Fc
T1 sequence (Q15116 25-167 limits assumed): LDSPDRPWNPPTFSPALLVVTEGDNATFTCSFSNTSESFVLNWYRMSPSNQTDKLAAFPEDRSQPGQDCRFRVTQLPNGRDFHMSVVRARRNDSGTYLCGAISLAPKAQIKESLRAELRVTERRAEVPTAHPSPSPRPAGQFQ
Procedure: The plates were washed three times with PBST. 5% PBS-Milk was added and incubated at room temperature for 1 hr. All the nanobody-Fc fusion proteins were subject to 3-fold gradient dilutions with an initial concentration of 10 μg/mL, added into each well at 30 μL/well, and incubated at room temperature for 1 hr. […] The plates were washed with PBST between incubations.

Binder | IC50 [nM]
B1 | 0.944
B2 | 1.08
B3 | 1.72
B4 | 1.61
B5 | 0.517
B6 | 1.2
B7 | 1.26
B8 | 0.85
B9 | 1.21
B10 | 1.54

target: T2, recombinant human PD-1-his protein (human, UniProt Q15116 25-167); assay: ELISA; PD-1-his coated 2 µg/mL, anti-human IgG Fc-HRP
T2 construct: also called hPD-1-his; not shown: his tag
T2 sequence (Q15116 25-167 limits assumed): as above
Procedure: (§1) The plates were washed three times with PBST. 5% PBS-Milk was added and incubated at room temperature for 2 h. The plates were washed three times with PBST. All the nanobody-Fc fusion proteins were subject to 3-fold gradient dilutions with an initial concentration of 10 μg/mL, added into each well at 30 μL/well, and incubated at room temperature for 1 hr. The plates were washed three times with PBST. The secondary antibody Goat-Anti-Human-IgG-Fc-HRP was diluted at 1:8000, added into each well at 30 μL/well, and incubated at room temperature for 50 min. The plates were washed nine times with PBST. TMB was added into each well at 30 μL/well and developed at room temperature in dark for 1 min to 5 min. 2 M hydrochloric acid was added at 30 μL/well to stop the reaction. The OD450 absorbance value was read by a microplate reader. Graphpad Prism software was used to fit the curve and calculate the EC₅₀ value (see Table 7).

Binder | EC50 [nM]
B11 | 0.553
B12 | 0.16
B13 | 0.613
B14 | 0.222
B15 | 0.2
B16 | 0.163
B17 | 0.157
B18 | 1.22
B19 | 0.14
B20 | 0.311
B21 | 0.169

target: T2, recombinant human PD-1-his protein; assay: as above; remark: another data set of the same source
Procedure: as §1, with “PBS-Milk” for “PBS-Milk was added”, “3-folded” for “3-fold”, “dilution” for “dilutions”, “calculate” for “calculate the”, “values.” for “value (see Table 7).”

Binder | EC50 [nM]
B1 | 0.146
B22 | 0.187
B23 | 0.421
B24 | 0.54
B2 | 0.166
B25 | 0.628
B26 | 0.196
B3 | 0.156
B27 | 0.252
B28 | 0.177
B29 | 0.219
B30 | 0.193
B31 | 0.242
B4 | 0.179
B32 | 2.18
B5 | 0.134
B6 | 0.152
B33 | 0.387
B34 | 0.198
B35 | 0.211
B36 | 0.27
B37 | 0.178
B38 | 0.242
B7 | 0.171
B8 | 0.158
B9 | 0.175
B10 | 0.141
B39 | 0.824

target: T1, recombinant human PD-1-Fc-Biotin; assay: competitive ELISA; PD-L1-mFc coated, 0.5 µg/mL PD-1-Fc-Biotin, streptavidin-HRP; remark: another data set of the same source
Procedure: The plates were washed three times with PBST. 5% PBS-Milk was added and incubated at room temperature for 1 hr. All the nanobody-Fc fusion proteins were subject to 3-fold gradient dilutions with an initial concentration of 10 μg/mL, added into each well at 30 μL/well, and incubated at room temperature for 1 hr. […] The well plates were washed with PBST between incubations.

Binder | IC50 [nM]
B11 | 0.419
B12 | 0.407
B13 | 0.572
B14 | 0.365
B15 | 0.287
B16 | 0.256
B17 | 0.306
B18 | 0.852
B19 | 0.395
B20 | 0.293
B21 | 0.323
